Article PMC9519967

Biological target: His-tagged Grb3-3 SH2 domain and C-terminal SH3 domain (SH2Δ40CSH3) (human) (UniProt P62993)
Experiment: MST

Kd	Substance
145 µM	Sos-C-Tail-6 truncated peptide (without GST) (from UniProt Q07889)
297 µM	Sos-C-Tail-8 truncated peptide (without GST) (from UniProt Q07889)
